Measurements published in PMC10845952, “Mass spectrometry and split luciferase complementation assays reveal the MecA protein interactome of Streptococcus mutans” (Microbiology Spectrum, 2024).

T1: MecA fused to the RenG N-terminal domain (1-155) (S. mutans, UniProt Q8DW33 1-240)
T1 construct: adaptor protein MecA; S. mutans UA159; source: S. mutans, expressed in live cells; not shown: RenG luciferase N-terminal domain (1-155), C-terminal, kept
T1 sequence: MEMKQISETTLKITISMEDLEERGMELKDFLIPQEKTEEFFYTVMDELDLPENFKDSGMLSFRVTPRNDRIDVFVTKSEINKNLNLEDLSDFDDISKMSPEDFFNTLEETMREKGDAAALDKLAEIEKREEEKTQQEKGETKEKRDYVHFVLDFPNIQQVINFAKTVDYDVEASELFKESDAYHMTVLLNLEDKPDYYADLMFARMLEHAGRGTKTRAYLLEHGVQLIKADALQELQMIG


Biological target: T1, MecA fused to the RenG N-terminal …
Assay: split reporter (BiFC, NanoBiT)
Details: partners not purified

Binder	relative binding affinity (%)
TopA fused to the RenG C-terminal domain (156-314) (natural protein, S. mutans, UniProt Q8DUD3 1-705, looked up) MTSKTTTTVKKTSKKRATPKKNLVIVESPAKAKTIEKYLGRSYKVVASVGHIRDLKKSSMSIDFDNNYEPQYINIRGKGPLINSLKKEAKNAKQIFLASDPDREGEAISWHLAHILDLDLKGKNRVVFNEITKDAVKNAFVEPRQIDMDLVDAQQARRVLDRIVGYSISPILWKKVKKGLSAGRVQSVALKLIIDRENEIKAFKPEEYWSIDGFFKKGNKKFQANFYGLDNKKTKLKSNDDVKKVLTRIKNDDFLVDKVEKKERKRNAPLPYTTSSLQQDAANKINFRTRKTMMVAQQLYEGIRLGSNGQQGLITYMRTDSTRISPVAQNDAANYITEHFGAEYSKHGNHVRNASGAQDAHEAIRPSNVNHTPESIAKYLDKDQLKLYTLIWNRFVASQMTAAVFDTVKVNLTQNGVLFIANGSQIKFKGYMAVYNDSDKTKVLPEMIKGETVKKISANPEQHFTQPPARYSEASLIKTLEENGVGRPSTYAPTLETIQKRYYVRLVSKRFEPTELGEIVNSLIIEFFPDIVDVKFTAEMESKLDEVEIGKEEWQKVIDQFYKPFEKEVIKAEEQMEKIQIKDEPAGFDCDVCGHPMVIKLGRYGKFYACSNFPDCHNTKAITKEIGVICPICQKGQVIERKTKRNRIFYGCDRYPDCDFTSWNKPIGRDCPKSGDFLVEKKIRGGGKQVVCSNEECDYKEKAVK	8.64 ± 0.36%
IlvD fused to the RenG C-terminal domain (156-314) (natural protein, Dihydroxy-acid dehydratase, IlvD; S. mutans UA159; not shown: RenG luciferase C-terminal domain (156-314), C-terminal, kept) not shown	13.1 ± 0.61%
UvrA fused to the RenG C-terminal domain (156-314) (natural protein, S. mutans, UniProt P72481 1-943, looked up, Excinuclease ABC subunit, UvrA; S. mutans UA159; not shown: RenG luciferase C-terminal domain (156-314), C-terminal, kept) MQDKLIIRGARAHNLKNIDVEIPRDKLIVMTGLSGSGKSSLAFDTIYAEGQRRYVESLSAYARQFLGNMDKPDVDSIDGLSPAISIDQKTTSKNPRSTVGTVTEINDYLRLLYARVGIPYCKNGHGAITASSVEQIVDQVLILPERTRMQILAPVVRRKKGQHKAVFDRIQKDGYVRVRIDGDIMDVAEVPELSKNKMHNIEVVVDRLVQKDGIRGRLFDSIEAALHLGDGYVIIDTMDDHELIFSEHYSCPVCGFTVPELEPRLFSFNAPFGSCPTCDGLGIKLEVDLDLVIPDENKTLREGTLAPWNPISSNYYPQLLEQAMNAFGVDMDKPWKDLSDEDKKLVLHGSGDTAFHFHYQNDFGGVRDIDIPFEGIISNISRRYHETNSDFTRNVMRSYMNELPCATCHGYRLNDQALSVRVGGKEGLNIGQVSELSIADHLSLLTHLELSENEKTIATPIVKEIKDRLTFLNNVGLNYLTLSRSAGTLSGGESQRIRLATQIGSNLSGVLYILDEPSIGLHQRDNDRLISSLKKMRDLGNTLIVVEHDEDTMMAADWLVDVGPGAGALGGEIVASGTPRQVAKNKKSITGQYLSGKKKIPVPLDRRKGSGRFIEIKGAAENNLQNINVKFPLGKFIAVTGVSGSGKSTLVNSILKKVIAQKLNRNSEKPGKYKSISGIEHIDRLIDIDQSPIGRTPRSNPATYTGVFDDIRDLFAQTNEAKIRGYKKGRFSFNVKGGRCEACSGDGIIKIEMHFLPDVYVPCEVCHGTRYNSETLEVHYKDKNIAEILNMTVNDAAEFFAPIPKIARKIRTIKDVGLGYVTLGQPATTLSGGEAQRMKLASELHKRSTGKSFYILDEPTTGLHTDDIARLLKVLERFVDDGNTVLVIEHNLDVIKTADHIIDLGPEGGVGGGQVIATGTPEQVAEMTESYTGQYLKGRLNEK	7.86 ± 0.3%
PheT fused to the RenG C-terminal domain (156-314) (natural protein, S. mutans, UniProt Q8CWX2 1-801, looked up, Phenylalanine-tRNA ligase subunit beta, PheT; S. mutans UA159; not shown: RenG luciferase C-terminal domain (156-314), C-terminal, kept) MLVSYKWLKELVDIDVPSHELAEKMSTTGIEVEGVDVPAEGLSKLVVGHVLSCEDVPETHLHLCQVDTGEEESRQIVCGAPNITAGIKVIVALPGARIADNYKIKKGKIRGMESLGMICSLQELGLPDSIIPKEYSDGIQILPEDAVPGESIFPYLDLDDEIIELSITPNRADALSMRGVAHEVAAIYDKSVHFEDKVLTESDKKAADLIKVAIASDKVLTYKARVVENVTIKPSPQWLQNLLMNAGIRPINNVVDVTNYVLLYFGQPMHAFDLDKFEGKDILARQAKAGEKLVTLDGEARDLIEEDLVITVADKPVALAGVMGGAATEIDASSKNVVLEAAVFDGKSVRKTSSRLNLRSESSSRFEKGVNYADVVKALDFAAAMLTELADGTVLAGQVSAGAVPTDDIQVSTSLDYVNVRLGTDLVFSDIESVFARLGFGLSGNDEKFTVSVPRRRWDISIQADLVEEIARIYGYDKLPTTLPEAAGTVGELTKTQKLRRKIRNLAEGSGLSEIISYALTTPEKAVAFTPNPTKITELMWPMTVDRSALRQNIVSGMLDTIAYNVARKSNNLALYEIGKVFEQTADPKKDLPKEIDTFAFALTGLVTEKDFQTAATPVDFFYAKGVLEAILAKLEITVQFVATKEMANMHPGRTALIERDGQVIGYLGQVHPQTAKLYDIPETYVAEVNLNALEAALKSDLVFEDITKFPAVSRDIALLLSEKVSHQDILDAIAASGVKRLIKVKLFDVYAGEKLGVGKKSMAYSLTFQNPNDNLTDEEVAKYMEKITSALTEKVGAEVR	17.9 ± 0.77%
MnmG fused to the RenG C-terminal domain (156-314) (natural protein, S. mutans, UniProt Q8DRS6 1-631, looked up, not shown: RenG luciferase C-terminal domain (156-314), C-terminal, kept) MTHEFTENYDVIVIGAGHAGVEASLATSRMGCKTLLATINLEMLAFMPCNPSIGGSAKGIVVREIDALGGEMGKNIDKSYIQMRMLNTGKGPAVRALRAQADKALYARNMKHTVEQQENLTLRQSMIDEILVEDGKVIGVRTATNQKYSAQAVIVTTGTALRGEIILGELKYSSGPNNSLASVTLADNLRDLGLEIGRFKTGTPPRVKANSIHYDETEIQPGDKKANHFSFMSKDEDYLKDQIPCWLTYTNQSSHDIINKNLYRAPMFSGIVKGVGPRYCPSIEDKIVRFADKDRHQLFLEPEGRETEEVYIQGLSTSLPEDVQKDVVHSIKGLENAEMMRTGYAIEYDIVLPHQLRATLETKKISGLFTAGQTNGTSGYEEAAGQGIVAGINAALKIQGKPELILKRSDAYIGVMIDDLVTKGTLEPYRLLTSRAEYRLILRHDNADLRLTEIGHQVGLVNEERYMRFQIRKNQFDNELTRLSSIKLKPVAEINKRIEELGFKPLTDALTAKEFMRRPEINYAIATSFVGPAAESLDEKVIELLETEIKYEGYINKALDQVAKMKRMEEKRIPKNIDWDAIDSIATEARQKFKKINPETIGQASRISGVNPADISILMVYLEGKNRSRTR	8 ± 0.33%
GltB fused to the RenG C-terminal domain (156-314) (natural protein, S. mutans, UniProt Q8CWY8 1-478, looked up) MADPFGFLKYERKDNPYRPVNERIKDFEELQTTLSVEERQKQAARCMNCGIPFCHEGTFYGGGRAVSGCPNDNLIPEWNDLIYKGDFRRAFERLTRTNPLPEMTGRVCPAPCEKACTEGLNGSGVTIHDNERFIIDNAFEEGWVADSGRPIERTGFKVAVVGSGPAGLSAAWRLNQLGHSVTVFERSDRFGGLLMYGIPNMKLDKKIVQRRIDTMASIGINFVANTEIGRDITAEELLEKFDRVILATGASVPRDLDIPGRDLKGIRFAVDFLTETTKNLLDSDTHELPPLLEGKHVLVIGGGDTGNDCIGTAVRLGAASVRQLEITPQLPEKRLPTNPWPQYPMINRTGYGQEEADFVQQTDLTDYITSTVEFLGENGQVTAVKTIKVGPGFKAIEGTEEVIKADLVLLAMGFTGAEKALFDQFRVECVYDDYSTRNEKVFVAGDARRGPSLVIWGIREGRKTAEKIDQNLRMMVTE	7.45 ± 0.28%
AlaS fused to the RenG C-terminal domain (156-314) (natural protein, S. mutans, UniProt Q8CWY0 1-872, looked up, Alanine-tRNA ligase, AlaS; S. mutans UA159; not shown: RenG luciferase C-terminal domain (156-314), C-terminal, kept) MKQLTSAQVRQMWLDFWKSKDHAIEPSANLVPVNDPTLLWINSGVATLKKYFDGSVIPENPRITNAQKAIRTNDIENVGKTARHHTMFEMLGNFSVGDYFRDDAIKWGFELLTSPEWFDLPKDKLYMTYYPDDKDSYNRWIECGVDPSHLIPIEDNFWEIGAGPSGPDTEIFFDRGEDFDPDHIGVRLLAEDIENDRYIEIWNIVLSQFNADPAVPRSEYKELPHKNIDTGAGLERLVAVMQGAKTNFETDLFMPIIREIEKLSGKTYDQDGDNMSFKVIADHIRSLSFAIGDGALPGNEGRGYVLRRLLRRAVMHGRRLGINEPFLYKLVPTVGKIMESYYPEVLEKQDFIEKIVKREEETFARTIDAGSNMLDQLLADLKAADKDTLEGKDIFRLYDTYGFPVELTEELAEDAGFKIDHQGFQAAMKEQQERARANVVKGGSMGMQNETLSNITEKSTFNYEKEALDSSLSVIIADNKRIEAVSEGQVLLVFSETPFYAEMGGQVADHGLIKNDKGDTVARVTDVQKAPNGQALHTVDVLGSLSVGTTYHLEIDHERRNRVMKNHTATHLLHAALHNVIGNHATQAGSLNEVEFLRFDFTHFEAVTPEELRQIEEEVNQQIWKAIPVTTIETDLDTAKEMGAMALFGEKYGKNVRVVSIGDYSVELCGGTHLKNTSEIGIFKIVKEEGIGSGTRRILAVTSKEAFEAYRQEEDILKEIATTLKAPQMNQVANKVASLQDQLHKLQKENAELKEKAAAVAAGDIFKDVKEVNGLRYIASQVEVADAGALRTFADKWKQKDYSDVLVLVASIGKKVNVLVASKSKDIHAGNLIKALAPIVSGRGGGKPDMAMAGGSDASAIKDLIAAVAENL	5.5 ± 0.29%
ClpC with the RenG C-terminal domain (156-314) fused to its N-terminus (natural protein, S. mutans, UniProt Q8DS14 1-813, looked up, also called N-ClpC) MTDYSLKMQEVFRLAQFEAARFESSYLESWHVLLAMVEIDSSVAGLSFAEFEADVRFEDYQAAAILAIGKKPKSSSNDIMLLEQSHALKRTLAEAAAISQVTHAKEVGTEHVLFAMLLNPNLLATRILELVGFHAKDDGESIRLLDLRKVIERYAGFSKEDIKAIFEMRKPKKVKNSSSFSDLMKPPSVTGELADFTRDLTELARQGRLEPVIGREQEISRMVQILSRKTKNNPVLVGDAGVGKTALAYGLAQRIVDSAVPFELADMKVLELDMMSVVAGTRFRGDFEERMNQIIADIEADGHIVLFIDELHTIMGSGSGIDSTLDAANILKPALARGSLRTIGATTQEEYQKHIEKDAALSRRFAKVTIEEPSEEEAYQILLGLKKSYETYHHVIISDAAVMAAVKGAHRYLSGKNLPDSAIDLLDEASATVQGLVKKKAPAYLTDLDHALITNDYQLAKRLLKKEKKPLLKKRAEVKEEDILATLSKLSGIPVKKLTQADSKKYLNLERELHKRVIGQDDAVSSISRAIRRNQSGIRVGKRPIGSFMFLGPTGVGKTELAKALAEVLFDDESALIRFDMSEYMEKFAASRLNGAPPGYVGYEEGGELTEKVRNKPYSVLLFDEVEKAHPDIFNILLQVLDDGVLTDSRGRKVDFSNTIIIMTSNLGATALRDDKTVGFGAKSFSQDYKAMESRILEELKKVYRPEFINRIDEKVVFHNLGQEDIRHIVKIMVAPLIAHLADQGITLKFQPSALKHLALAGYDAEMGARPLRRTLQTEVEDKLAELILSGKLASGQTLKIGIQKEKLKFDIV	55.2 ± 4.16%
